Among the data in patent US20070148773 are activity values, retold here.

What all share (assay): cell_activity
Data set [1] has as its target Int-h (mutant lambda integrase) (Bacteriophage lambda) (UniProt P03700). The following applies: HeLa 48 h.
The target in data set [2] is Int-h/218 (double mutant lambda integrase) (Bacteriophage lambda) (UniProt P03700). The following applies: HeLa 48 h.
Data set [3] addresses T1, Int (wild-type lambda integrase) (Bacteriophage lambda) (UniProt P03700).
T1 sequence: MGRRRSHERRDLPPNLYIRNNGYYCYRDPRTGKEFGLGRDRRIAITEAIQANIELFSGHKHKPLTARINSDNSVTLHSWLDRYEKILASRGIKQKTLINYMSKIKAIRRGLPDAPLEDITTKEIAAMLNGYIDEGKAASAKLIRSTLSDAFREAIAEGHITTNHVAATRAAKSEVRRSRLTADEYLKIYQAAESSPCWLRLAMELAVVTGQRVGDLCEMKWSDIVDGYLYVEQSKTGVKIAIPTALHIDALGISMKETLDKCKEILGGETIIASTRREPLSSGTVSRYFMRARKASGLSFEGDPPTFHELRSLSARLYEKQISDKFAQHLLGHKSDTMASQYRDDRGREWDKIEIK
The following applies: attP x attP intermolecular, HeLa 48 h; attP x attB 0.81%.

Take “CTGCTTTTTTATACTAACTTG (double strand) [attB]”: the activity in data set [1] (attB x attB intermolecular) was 1.15 % GFP+ cells; in data set [2] (attB x attB intermolecular), 4.01 % GFP+ cells.

With “TCTGTTACAGGTCACTAATACCATCTAAGTAGTTGATTCATAGTGACTGCATATGTTGTGTTTTACAGTATTATGTAGTCTGTTTTTTATGCAAAATCTAATTTAATATATTGATATTTATATCATTTTACGTTTCTCGTTCAGCTTTTTTATACTAAGTTGGCATTATAAAAAAGCATTGCTTATCAATTTGTTGCAACGAACAGGTCACTATCAGTCAAAATAAAATCATTATTTGATTTC (double strand) [attP]”, the activity in data set [1] (attP x attP intermolecular, attP x attB 9.90%) amounted to 8.07 % GFP+ cells; in data set [2] (attP x attP intermolecular, attP x attB 16.45%), 17.6 % GFP+ cells; in data set [3], 1.24 % GFP+ cells.
